According to patent US8034784B2, “Method of suppressing or reducing IL-TIF-induced inflammation, or treating associated conditions thereof, using Zcytor16” (ZymoGenetics, Inc., priority 1999, dated 2011):
Each block holds one molecule with its values, some of them ahead of it.

Assays:
IL-TIF [1] = molecular target: T1, IL-TIF (Homo sapiens, UniProt Q9GZX6); test: COS cell secretion trap binding assay; parameters: expressed in transfected cells; host or cells: COS cells, pZP7 expression vector; conditions: 1-3 μg/ml zcytor16sR-Fc4, COS cells transfected with human IL-TIF cDNA
T1 sequence (Q9GZX6 34-179): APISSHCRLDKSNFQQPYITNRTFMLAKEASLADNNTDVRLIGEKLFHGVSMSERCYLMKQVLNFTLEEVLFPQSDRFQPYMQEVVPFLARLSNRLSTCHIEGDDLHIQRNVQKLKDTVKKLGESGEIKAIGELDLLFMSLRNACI
Procedure: COS cell transfections were performed as follows: A mixture of 0.5 μg DNA and 5 μl lipofectamine (Gibco BRL) in 92 ul serum free DMEM media (55 mg sodium pyruvate, 146 mg L-glutamine, 5 mg transferrin, 2.5 mg insulin, 1 μg selenium and 5 mg fetuin in 500 ml DMEM) was incubated at room temperature for 30 minutes and then 400 μl serum free DMEM media added. A 500 μl mixture was added onto COS cells plated on 12-well tissue culture plate at 1.5×10^5 COS cells/well and previously incubated for 5 hours at 37° C. An additional 500 μl 20% FBS DMEM media (100 ml FBS, 55 mg sodium pyruvate and 146 mg L-glutamine in 500 ml DMEM) was added and the plates were incubated overnight.
The secretion trap was performed as follows: Media was rinsed off cells with PBS and fixed for 15 minutes with 1.8% Formaldehyde in PBS. Cells were then washed with TNT (0.1M Tris-HCl, 0.15M NaCl, and 0.05% Tween-20 in H2O). Cells were permeated with 0.1% Triton-X in PBS for 15 minutes and washed again with TNT. […]

IL-TIF [2] = molecular target: T1, IL-TIF; test: Antagonism of IL-TIF-induced proliferation of BaF3/CRF2-4/zcytor11 cells (Alamar Blue); assay type: cell-based; parameters: made in house; host or cells: BHK 570 cells, pHZ200-CEE vector, purified from conditioned media; conditions: zcytor16 at 10 μg/ml; IL-TIF at all concentrations (0.06-50 ng/ml)
Text: Purified IL-TIF-CEE (Example 19) was used to test for the presence of proliferation activity as described below. Purified zcytor16-Fc4 (Example 11) was used to antagonize the proliferative response of the IL-TIF in this assay as described below.
BaF3/CRF2-4/zcytor11 cells were spun down and washed in the complete media, described in Example 7A above, but without mIL-3 (hereinafter referred to as “mIL-3 free media”). The cells were spun and washed 3 times to ensure the removal of the mIL-3. Cells were then counted in a hemacytometer. Cells were plated in a 96-well format at 5000 cells per well in a volume of 100 μl per well using the mIL-3 free media.
Proliferation of the BaF3/CRF2-4/zcytor11 cells was assessed using IL-TIF-CEE protein diluted with mIL-3 free media to 50, 10, 2, 1, 0.5, 0.25, 0.13, 0.06 ng/ml concentrations. 100 μl of the diluted protein was added to the BaF3/CRF2-4/zcytor11 cells. […] Alamar Blue gives a fluourometric readout based on number of live cells, and is thus a direct measurement of cell proliferation in comparison to a negative control. […] Plates were read on the Finax™ plate reader (Molecular Devices Sunnyvale, Calif.) using the SoftMax™ Pro program, at wavelengths 544 (Excitation) and 590 (Emmission). […] The response, as measured, was approximately 15-fold over background at the high end of 50 ng/ml down to a 2-fold induction at the low end of 0.06 ng/ml. […]

IL-TIF [3] = molecular target: T1, IL-TIF; test: Inhibition of IL-TIF activation of luciferase reporter in MES 13 cells by zcytor16-Fc4; assay type: cell-based; conditions: even at the highest dose of IL-TIF used
Procedure: MES 13 cells (ATCC No. CRL-1927) were plated at 10,000 cells/well in 96-well tissue culture clusters (Costar) in DMEM growth medium (Life Technologies) supplemented with pyruvate and 10% serum (HyClone). Next day, the medium was switched to serum free DMEM medium by substituting 0.1% BSA (Fraction V; Sigma) for serum. This medium also contained the adenoviral construct KZ136 (below) that encodes a luciferase reporter mini-gene driven by SRE and STAT elements, at a 1000:1 multiplicity of infection (m.o.i.), i.e. 1000 adenoviral particles per cell. After allowing 24 h for the incorporation of the adenoviral construct in the cells, the media were changed and replaced with serum-free media. Human recombinant IL-TIF with or without a recombinant zcytor16-Fc4 fusion was added at the indicated final concentration in the well (as described in Table 11, below). Dilutions of both the IL-TIF and zcytor16-Fc4 were performed in serum-free medium. 0.1% BSA was added for a basal assay control. 4 h later, cells were lysed and luciferase activity, denoting activation of the reporter gene, was determined in the lysate using an Luciferase Assay System assay kit (Promega) and a Labsystems Luminoskan luminometer (Labsystems, Helsinki, Finland). Activity was expressed as luciferase units (LU) in the lysate.
The construction of the adenoviral KZ136 vector was as follows. […]

[4] = test system: BaF3/CRF2-4/zcytor11 cells; test: Alamar Blue proliferation assay, BaF3/CRF2-4/zcytor11 cells; assay type: cell-based, murine; conditions: 3 days, then Alamar Blue
Procedure: BaF3, an interleukin-3 (IL-3) dependent pre-lymphoid cell line derived from murine bone marrow (Palacios and Steinmetz, Cell 41: 727-734, 1985; Mathey-Prevot et al., Mol. Cell. Biol. 6: 4133-4135, 1986), was maintained in complete media (RPMI medium (JRH Bioscience Inc., Lenexa, Kans.) supplemented with 10% heat-inactivated fetal calf serum, 2 ng/ml murine IL-3 (mIL-3) (R & D, Minneapolis, Minn.), 2 mM L-glutaMax-1™ (Gibco BRL), 1 mM Sodium Pyruvate (Gibco BRL), and PSN antibiotics (GIBCO BRL)). Prior to electroporation, CRF2-4/pZP7P was prepared and purified using a Qiagen Maxi Prep kit (Qiagen) as per manufacturer's instructions. […]
BaF3/CRF2-4/zcytor11 cells were spun down and washed in the complete media, described in Example 7A above, but without mIL-3 (hereinafter referred to as “mIL-3 free media”). […] Cells were then counted in a hemacytometer. […]
Proliferation of the BaF3/CRF2-4/zcytor11 cells was assessed using IL-TIF-CEE protein diluted with mIL-3 free media to 50, 10, 2, 1, 0.5, 0.25, 0.13, 0.06 ng/ml concentrations. […] Alamar Blue gives a fluourometric readout based on number of live cells, and is thus a direct measurement of cell proliferation in comparison to a negative control. […] Plates were read on the Finax™ plate reader (Molecular Devices Sunnyvale, Calif.) using the SoftMax™ Pro program, at wavelengths 544 (Excitation) and 590 (Emmission). […]

binding of zcytor16sR/Fc4 to COS cells transfected with human IL-TIF (IL-TIF [1]): positive binding
proliferative response to IL-TIF in the presence of zcytor16 (IL-TIF [2]): brought down to background
B1: zcytor16-Fc4: soluble zcytor16 polypeptide (residue 22 to 231 of SEQ ID NO:2; SEQ ID NO:13) fused to a C-terminal Fc4 tag (protein)
chain: TQSTHESLKPQRVQFQSRNFHNILQWQPGRALTGNSSVYFVQYKIYGQRQWKNKEDCWGTQELSCDLTSETSDIQEPYYGRVRAASAGSYSEWSMTPRFTPWWETKIDPPVMNITQVNGSLLVILHAPNLPYRYQKEKNVSIEDYYELLYRVFIINNSLEKEQKVYEGAHRAVEIEALTPHSSYCVVAEIYQPMLDRRSQRSEERCVEIPEPRSSDKTHTCPPCPAPEAEGAPSVFLFPPKPKDTLMISRTPEVTCVVVDVSHEDPEVKFNWYVDGVEVHNAKTKPREEQYNSTYRVVSVLTVLHQDWLNGKEYKCKVSNKALPSSIEKTISKAKGQPREPQVYTLPPSRDELTKNQVSLTCLVKGFYPSDIAVEWESNGQPENNYKTTPPVLDSDGSFFLYSKLTVDKSRWQQGNVFSCSVMHEALHNHYTQKSLSLSPGK
antagonism of the response of MES 13 cells to IL-TIF (IL-TIF [3]): effectively blocks the response to IL-TIF

B2: IL-TIF-CEE: human IL-TIF polypeptide (SEQ ID NO:15) containing C-terminal GluGlu (EE) tag, purified from BHK cells; ligand of zcytor16 (protein, listed as Homo sapiens)
chain: MAALQKSVSSFLMGTLATSCLLLLALLVQGGAAAPISSHCRLDKSNFQQPYITNRTFMLAKEASLADNNTDVRLIGEKLFHGVSMSERCYLMKQVLNFTLEEVLFPQSDRFQPYMQEVVPFLARLSNRLSTCHIEGDDLHIQRNVQKLKDTVKKLGESGEIKAIGELDLLFMSLRNACI
modifications: C-terminal GluGlu tag
notes: ligand of zcytor16
proliferative response (induction) ([4]; IL-TIF-CEE 0.06 ng/ml): 2 fold induction
proliferative response over background ([4]; IL-TIF-CEE 50 ng/ml): approximately 15 fold over background
